# Read-outs that look alike come from different tables or passages of the source.
# Key:
# [1] = target: taxol-stabilized bovine brain microtubules (bovine) (UniProt Q6B856); test: co-sedimentation
# [2] = target: taxol-stabilized bovine brain microtubules (bovine) (UniProt Q6B856); test: co-sedimentation; remark: listed apart in the source
Binder,fold higher Kd than full length Stu2p [1] [fold],Kd [2] [nM],Kd [1] [nM]
"Stu2p C611 (domain or fragment, [35S]methionine label) MSGEEEVDYTTLPLEERLTYKLWKARLEAYKELNQLFRNSVGDISRDDNIQIYWRDPTLFAQYITDSNVVAQEQAIVALNSLIDAFASSSLKNAHNITLISTWTPLLVEKGLTSSRATTKTQSMSCILSLCGLDTSITQSVELVIPFFEKKLPKLIAAAANCVYELMAAFGLTNVNVQTFLPELLKHVPQLAGHGDRNVRSQTMNLIVEIYKVTGNNSDLLEEILFKKLKPIQVKDLHKLFAKVGDEPSSSKMLFEWEKRELEKKRSQEEEARKRKSILSNDEGEYQIDKDGDTLMGMETDMPPSKQQSGVQIDTFSMLPEETILDKLPKDFQERITSSKWKDRVEALEEFWDSVLSQTKKLKSTSQNYSNLLGIYGHIIQKDANIQAVALAAQSVELICDKLKTPGFSKDYVSLVFTPLLDRTKEKKPSVIEAIRKALLTICKYYDPLASSGRNEDMLKDILEHMKHKTPQIRMECTQLFNASMKEEKDGYSTLQRYLKDEVVPIVIQIVNDTQPAIRTIGFESFAILIKIFGMNTFVKTLEHLDNLKRKKIEETVKTLPNFSIASGSTHSTIETNKQTGPMENKFLLKKSSVLPSKRVASSPLRNDNKS",6,–,–
"Stu2p C657 (domain or fragment, [35S]methionine label) MSGEEEVDYTTLPLEERLTYKLWKARLEAYKELNQLFRNSVGDISRDDNIQIYWRDPTLFAQYITDSNVVAQEQAIVALNSLIDAFASSSLKNAHNITLISTWTPLLVEKGLTSSRATTKTQSMSCILSLCGLDTSITQSVELVIPFFEKKLPKLIAAAANCVYELMAAFGLTNVNVQTFLPELLKHVPQLAGHGDRNVRSQTMNLIVEIYKVTGNNSDLLEEILFKKLKPIQVKDLHKLFAKVGDEPSSSKMLFEWEKRELEKKRSQEEEARKRKSILSNDEGEYQIDKDGDTLMGMETDMPPSKQQSGVQIDTFSMLPEETILDKLPKDFQERITSSKWKDRVEALEEFWDSVLSQTKKLKSTSQNYSNLLGIYGHIIQKDANIQAVALAAQSVELICDKLKTPGFSKDYVSLVFTPLLDRTKEKKPSVIEAIRKALLTICKYYDPLASSGRNEDMLKDILEHMKHKTPQIRMECTQLFNASMKEEKDGYSTLQRYLKDEVVPIVIQIVNDTQPAIRTIGFESFAILIKIFGMNTFVKTLEHLDNLKRKKIEETVKTLPNFSIASGSTHSTIETNKQTGPMENKFLLKKSSVLPSKRVASSPLRNDNKSKVNPIGSVASASKPSMVAANNKSRVLLTSKSLATPKNVVANSTDKN",1.6,–,–
"Stu2p (natural protein, [35S]methionine label) MSGEEEVDYTTLPLEERLTYKLWKARLEAYKELNQLFRNSVGDISRDDNIQIYWRDPTLFAQYITDSNVVAQEQAIVALNSLIDAFASSSLKNAHNITLISTWTPLLVEKGLTSSRATTKTQSMSCILSLCGLDTSITQSVELVIPFFEKKLPKLIAAAANCVYELMAAFGLTNVNVQTFLPELLKHVPQLAGHGDRNVRSQTMNLIVEIYKVTGNNSDLLEEILFKKLKPIQVKDLHKLFAKVGDEPSSSKMLFEWEKRELEKKRSQEEEARKRKSILSNDEGEYQIDKDGDTLMGMETDMPPSKQQSGVQIDTFSMLPEETILDKLPKDFQERITSSKWKDRVEALEEFWDSVLSQTKKLKSTSQNYSNLLGIYGHIIQKDANIQAVALAAQSVELICDKLKTPGFSKDYVSLVFTPLLDRTKEKKPSVIEAIRKALLTICKYYDPLASSGRNEDMLKDILEHMKHKTPQIRMECTQLFNASMKEEKDGYSTLQRYLKDEVVPIVIQIVNDTQPAIRTIGFESFAILIKIFGMNTFVKTLEHLDNLKRKKIEETVKTLPNFSIASGSTHSTIETNKQTGPMENKFLLKKSSVLPSKRVASSPLRNDNKSKVNPIGSVASASKPSMVAANNKSRVLLTSKSLATPKNVVANSTDKNEKLIEEYKYRLQKLQNDEMIWTKERQSLLEKMNNTENYKIEMIKENEMLREQLKEAQSKLNEKNIQLRSKEIDVNKLSDRVLSLENELRNMEIELDRNKKRNDTNLQSMGTISSYSIPSSTVSSNYGVKSLSSALPFKEEEDVRRKEDVNYERRSSESIGDLPHRVNSLNIRPYRKNGTGVSSVSDDLDIDFNDSFASEESYKRAAAVTSTLKARIEKMKAKSRREGTTRT",–,560,540
"Stu2p C557 (domain or fragment, [35S]methionine label) MSGEEEVDYTTLPLEERLTYKLWKARLEAYKELNQLFRNSVGDISRDDNIQIYWRDPTLFAQYITDSNVVAQEQAIVALNSLIDAFASSSLKNAHNITLISTWTPLLVEKGLTSSRATTKTQSMSCILSLCGLDTSITQSVELVIPFFEKKLPKLIAAAANCVYELMAAFGLTNVNVQTFLPELLKHVPQLAGHGDRNVRSQTMNLIVEIYKVTGNNSDLLEEILFKKLKPIQVKDLHKLFAKVGDEPSSSKMLFEWEKRELEKKRSQEEEARKRKSILSNDEGEYQIDKDGDTLMGMETDMPPSKQQSGVQIDTFSMLPEETILDKLPKDFQERITSSKWKDRVEALEEFWDSVLSQTKKLKSTSQNYSNLLGIYGHIIQKDANIQAVALAAQSVELICDKLKTPGFSKDYVSLVFTPLLDRTKEKKPSVIEAIRKALLTICKYYDPLASSGRNEDMLKDILEHMKHKTPQIRMECTQLFNASMKEEKDGYSTLQRYLKDEVVPIVIQIVNDTQPAIRTIGFESFAILIKIFGMNTFVKTLEHLDNLKRKKIEETV",30,–,–

# Now from value to binder:
fold higher Kd than full length Stu2p [1] [fold],Kd [2] [nM],Kd [1] [nM],Binder
> 50,–,–,"Stu2p N658 (domain or fragment, [35S]methionine label) EKLIEEYKYRLQKLQNDEMIWTKERQSLLEKMNNTENYKIEMIKENEMLREQLKEAQSKLNEKNIQLRSKEIDVNKLSDRVLSLENELRNMEIELDRNKKRNDTNLQSMGTISSYSIPSSTVSSNYGVKSLSSALPFKEEEDVRRKEDVNYERRSSESIGDLPHRVNSLNIRPYRKNGTGVSSVSDDLDIDFNDSFASEESYKRAAAVTSTLKARIEKMKAKSRREGTTRT"
3.5,–,–,"Stu2p N612 (domain or fragment, [35S]methionine label) KVNPIGSVASASKPSMVAANNKSRVLLTSKSLATPKNVVANSTDKNEKLIEEYKYRLQKLQNDEMIWTKERQSLLEKMNNTENYKIEMIKENEMLREQLKEAQSKLNEKNIQLRSKEIDVNKLSDRVLSLENELRNMEIELDRNKKRNDTNLQSMGTISSYSIPSSTVSSNYGVKSLSSALPFKEEEDVRRKEDVNYERRSSESIGDLPHRVNSLNIRPYRKNGTGVSSVSDDLDIDFNDSFASEESYKRAAAVTSTLKARIEKMKAKSRREGTTRT"
1.4,–,–,"Stu2p N558 (domain or fragment, [35S]methionine label) KTLPNFSIASGSTHSTIETNKQTGPMENKFLLKKSSVLPSKRVASSPLRNDNKSKVNPIGSVASASKPSMVAANNKSRVLLTSKSLATPKNVVANSTDKNEKLIEEYKYRLQKLQNDEMIWTKERQSLLEKMNNTENYKIEMIKENEMLREQLKEAQSKLNEKNIQLRSKEIDVNKLSDRVLSLENELRNMEIELDRNKKRNDTNLQSMGTISSYSIPSSTVSSNYGVKSLSSALPFKEEEDVRRKEDVNYERRSSESIGDLPHRVNSLNIRPYRKNGTGVSSVSDDLDIDFNDSFASEESYKRAAAVTSTLKARIEKMKAKSRREGTTRT"

# From PMC2140218
